{
  "source": "patent US11478551B2",
  "about": "“Long-acting adrenomedullin derivative” (University of Miyazaki, priority 2015, dated 2022)",
  "key": {"[1]": {"assay": "Measurement over time of AM concentration in plasma after subcutaneous administration (RIA)", "assay_type": "in vivo", "details": "10 nmol/kg subcutaneous single dose, rat", "procedure": "1 day, 7 days and 10 days after the start of the administration, 50 mg of pentobarbital was intraperitoneally administered, and 300 μL of blood was collected each time from the tail vain under anesthesia. Immediately, 300 μg of EDTA-2Na and […] of aprotinin were added to the obtained blood sample, and the mixture was centrifuged under conditions involving 10 minutes and 3000 rpm to obtain plasma. The AM concentration in the plasma of each sample was measured by radioimmunoassay (RIA) (Kitamura K, Ichiki Y, Tanaka M et al., Immunoreactive adrenomedullin in human plasma. FEBS Lett., vol. 341, p. 288-90, 1994).\nThe compound (37) prepared in experiment III-1 was subcutaneously administered in a single dose of 30 nmol/kg to each rat, and time-dependent change in the concentration in blood of the adrenomedullin derivative was observed. The compound (37) dissolved in physiological saline was subcutaneously administered to each 7- to 8-week-old male Wistar rat (approximately 250 g). 1 day, 2 days, 4 days, 7 days and 9 days after the start of the administration, 50 mg of pentobarbital was intraperitoneally administered, and 300 μL of blood was collected each time from the tail vain under anesthesia. Immediately, 300 μg of EDTA-2Na and […] of aprotinin were added to the obtained blood sample, and the mixture was centrifuged under conditions involving 10 minutes and 3000 rpm to obtain plasma. The AM concentration in the plasma of each sample was measured by RIA."}, "wound models": {"system": "wound models", "assay": "Wound model", "assay_type": "in vivo, mouse", "details": "1 nmol/kg subcutaneous single dose, BALB/c-nu/nu mice", "procedure": "5-week-old male BALB/c-nu/nu mice (Charles River Laboratories Japan, Inc.) were purchased and acclimatized for 1 week. Then, 5 mg of pentobarbital was intraperitoneally administered to each mouse for anesthesia. The skin was disinfected using ethanol for disinfection. The skin of the back was pulled with fingers with the mouse in the lateral position, and pressed and cut with a round knife for skin biopsy (disposable biopsy punch with plunger system) from one side toward the other side on a disinfected mat for drafting to prepare two defective injuries each having a diameter of 6 mm. […] Physiological saline was administered as a vehicle to a control group. A dressing was applied to cover the back including the wound sites. Change in the wound areas were observed over time."}},
  "data": [
    {"substance": "GL-2-branched CH3O-PEG (60k)-CH2-^αNH-(h.AM (1-52)) [Compound (8)]", "values": [
      {"measurement": "level at time molar at 24 h", "setting": "[1]; 1 day later", "result": "≥ 2.6", "unit": "nM"},
      {"measurement": "level at time molar at 24 h", "setting": "[1]; 7 days later", "result": "≥ 0.74", "unit": "nM"},
      {"measurement": "level at time molar at 24 h", "setting": "[1]; 10 days later", "result": "≥ 0.28", "unit": "nM"},
      {"measurement": "reduction in the wound areas compared to the vehicle control group", "setting": "wound models", "result": "faster"}
    ]}
  ]
}
